The text below walks through data of US12551573B2, “Compositions and methods for the targeting of PCSK9” (Scribe Therapeutics Inc., priority 2022, dated 2026).

First the molecules themselves.
B1: DOMAIN_13539 (protein, listed as Gorilla sp.)
chain: CYQDSVTFDDVAVDFTQEEWTLLDSTQRSLYSDVMLENYKNLATVGGQIIKPSLISWLEQEESRTVQGGVLRGRKTQWRGT
B2: DOMAIN_16688 (protein)
chain: SQEQVSFKDVCVDFTREEWYLLDPAQKILYRDVILENYSHLVSVGNCITKPEVIFKIEQGEEPWILEERFPKQCCSERNWK
modifications: Lipotes vexillifer
B3: DOMAIN_13331 (protein, listed as Macaca fascicularis)
chain: FQGSISFKDVTVGFTQEEWQHLDPSQRALYRDVMLENYSNLVSVGYCVHKPEVISRLEQGEEPWRLEEEFPSQSFPVWTAD
B4: DOMAIN_10277 (protein, listed as Dipodomys ordii)
chain: SNKLVSFDDVAVEFSWEEWQELDISQRTLYRDVMLETYSMLVSLGHTGPKPQLIVKLEQDEESYMREASDKNFSDVQKMKH
B5: DOMAIN_11908 (protein, listed as Canis lupus)
chain: CEGSVSFEDVTMDFSREEWQQLDPAQRCLYQDVMLEIYSHLLFVGYNIPNPEIISRMEKGEEPWMREIQLPHQRHRERAFG
B6: DOMAIN_11202 (protein)
chain: RQAFLAFGDVTVDFTQKEWRLLSPAQRALYREVTLENYSHLVSLGILHSKPELIRRLEQGEAPWGEERRRRPGPCAGIYAE
modifications: Nomascus leucogenys
B7: DOMAIN_11581 (protein, listed as Equus caballus)
chain: LQVSVSFEDVTVDFSREEWQHLDPAQRRLYRDVTLENYSHLCSVGYQVPKPEVIFKLEQGEGPWMLEGEAPHQSCSDDDIG
B8: DOMAIN_11796 (protein, listed as Sus scrofa)
chain: FRGPVTFKDITVEFTQEEWQLLDNAQRTLYREVMQENYHHLISVGYCVNKPNAVFKLKQGKEPWILEVEFPRRNNPEDLWN
B9: DOMAIN_11944 (protein, listed as Bos indicus)
chain: PQESVTFEDVAVNFSHEEWQCLTHAQRHLYKDVMLENYGNMVSLGFSFSKPPLISRLEQGTEPYVQDRQDWEFLSCSYPVS
B10: DOMAIN_9993 (protein, listed as Rattus norvegicus)
chain: DVVTYEDVHVNFTQEEWALLDPSQKRLYKVVMLETYKNLSAIGYIWEDHTIEQHFQSSRSHGRHKRHRTGEQPSELIQHGK
B11: DOMAIN_9617 (protein, listed as Mesocricetus auratus)
chain: LQDSVTFKDVAVDFSQEEWERLNPAQRSLYRTVVLENYWNLVSVGACVSKSHLISLLEHGKAPWDMRGEVTESTSQDGESV
B12: DOMAIN_12206 (protein, listed as Bos mutus)
chain: QEQVSFKDVCVDFTQEEWYLLDPAQKILYRDVILENYSHLVSVGNCITKPEVIFKIEQGEEPWILEERFPKQWHSGKSYKY
B13: DOMAIN_11049 (protein, listed as Neophocaena asiaeorientalis)
chain: PQGCAISEDVFVYFSREEWVLLDEDQRLLYRDVMLENFALLASLGIASSRSHLVTQLEQGEEPWMPAQVDMTPATEKEAQK
B14: DOMAIN_10241 (protein, listed as Octodon degus)
chain: PTAPVAFSDLTICFSQEEWGWLSPTQKLLYEEVMLENYQNLVSVGLCTRKPHIITLLEKGKDPWIAEPLRKRGGPDPASRY
B15: DOMAIN_11359 (protein, listed as Sus scrofa)
chain: AQGQVTFEDVAVCFSQEEWGLLDETQRLLYRSVMLETFSLMASLGLTSSRTHDISQLERWGEPFLSASGAMRATRPTGCWH
B16: DOMAIN_10359 (protein)
chain: AQGLMAFEDVAVYFSREEWGLLDAAQRALYRRVMLENFTLLASLGLSVSRPHVVIQLECGKEPWVLNGTDVTLARNAQRRP
modifications: Delphinapterus leucas
B17: DOMAIN_11312 (protein, listed as Sus scrofa)
chain: ALGSVTFRDVAVFFSQDEWLHLDSAQKTLYQEVMLENYSTLVSLGIPFSMPKVICQLQQGEDPCMVEGEALRDPCLDFKTW
B18: DOMAIN_11314 (protein, listed as Sus scrofa)
chain: VTFEDVALYFSRDEWRLLDEAQRRLYHDVMLQNFSLISSLGCCCGAEDAESPFQPSMFRDVSQARTLKAASLSQKNHPCEK
B19: DOMAIN_11071 (protein, listed as Chrysochloris asiatica)
chain: SLEQVSFKDVCVDFTQEEWYLLDPAQKILYRDVILENYSNIVSVGHCGTKPEVIFKIEQGEEPWVLGEGFSSLQHPERNWK
B20: DOMAIN_9716 (protein, listed as Mus caroli)
chain: PKVTVSFEDVSVYFTKTEWKLLDLKQRNLYKQVMLENYSHLVSVGFAFSKPNLVSQLERGEKPWIRDDRMESAARSRAGNR
B21: DOMAIN_10763 (protein, listed as Mustela putorius)
chain: PKVPVSFEDVSVYFTKTEWKLLDVQQRILYKTVMLENYHHLVSLGCLSTKPHLVSWLEQGEGPWTTDIWRTPATAKTQTEG
B22: DOMAIN_11097 (protein, listed as Mandrillus leucophaeus)
chain: KEASVAFRDVAVDFTQEEWRLLSPAQRTLHREVMLETYNHLVSLEIPSSKPKLIAQLERGEEPWREERKCSLDLCPESKPE
B23: DOMAIN_11321 (protein)
chain: GKELLSFEDVAMYFTREEWGHLNLGQKDLYRDVMLENYRNMVLLGFQFPKPEVICQLENWDEQWILDLPRAGNRKASGSAC
modifications: Nomascus leucogenys
B24: DOMAIN_9706 (protein, listed as Octodon degus)
chain: SPVLVSFDDVFVSFTREEWQVLDNAQRALYGDVMLETYRSLVLLGQCITKPEVIFKLEQGVEPWTGGEPHNQSPPDVQEVD
B25: DOMAIN_11307 (protein, listed as Mandrillus leucophaeus)
chain: MAFEDVAVYFSQEEWGLLDTAQRALYRRVMLDNFALVASLGLSTSRPRVVIQLERGEEPWVPSRTDTILSRNTYRRRNPGS
B26: DOMAIN_10974 (protein)
chain: AQMLVTFEEVAVYFTQGQGALLGPAQRALYRDVMQENYEMVTSLGFSLPKPELISRLERGEEPWVPDLQACEKRESLRGAR
modifications: Chelonia mydas
B27: DOMAIN_9858 (protein, listed as Mesocricetus auratus)
chain: MDAVTYDDVHINFTLEEWALLNPSQKSLYKDVMLDTYRNLTAIGYSWDDHNIEEICQSSRSHRRHLQRHAKINTGEKPYGS
B28: DOMAIN_11988 (protein)
chain: MAFEDVAVHFSQEEWGLLDTAQRSLYRRVMLENFALLASLGLSVSRPHVVTQLERGEEPWVLSGVDVTLPQDAQRRPRRGS
modifications: Muntiacus muntjak
B29: DOMAIN_10612 (protein)
chain: ALESVTFRDVAVFFSRDEWLHLNPAQRALYREVMLDNYSALLSLGILFSKPKVILQLEQGEDPWMVENGVSQSACLGWESL
modifications: Vicugna pacos
B30: DOMAIN_10057 (protein, listed as Mus musculus)
chain: MDALTFDDVHVHFTREEWSLLDPSQKRLYKDVMLEIYKNLTAIGYKWKDHNVGEHSQNDRRYGRHERSPAGENHNEYTQCD
B31: DOMAIN_9559 (protein, listed as Mus caroli)
chain: MGLVSFEDIAVYFNLEEWQDLDTAQRTLYRDVMLETYSSLVFLDPCIAKPKLIFNLERGFGPWSLAEASSRSLPGVHNVST
B32: DOMAIN_12114 (protein, listed as Neophocaena asiaeorientalis)
chain: VQASLSFEDVAVRFTWEEWQLLDPSQKDLYRNVMLENYCNLVSVGYQTPKPDSLFQLEQGEPPWRVEGAGQSQTCPEEIWE
B33: DOMAIN_10573 (protein, listed as Cervus elaphus)
chain: SHTLVTFKDILVNFTREEWKLLDTAQQIMYKDVMLENYRNLVSLGHQLPKPDVILRLEKGEEPWLVEKEIHQETHPDLETP
B34: DOMAIN_10807 (protein, listed as Erinaceus europaeus)
chain: SQASVSFKDVTVEFTQDEWRLMSSAQRTLYREVMLENYSHLISMGYCSTKPELIFALEQKDFRESILERESLSTIPPEDFQ
B35: DOMAIN_12057 (protein)
chain: LLESVTFGDVAVVFSRDEWLHLDAAQRSLYREVMLENYSALVSLGIPLSIPKLICQLQQGEDPCMVEREIPQDVCLGFKTW
modifications: Muntiacus muntjak

The first experiment relates to HBEGF locus. In kind it is cell-based, human. To be noted: high-throughput screen of dXR repression of the HBEGF gene; change in abundance of each domain in the library before and after diphtheria toxin selection.
Take B1: the “Log2 (fold change)” value is given as 3.4924.

Turning to B2, the “Log2 (fold change)” value is 3.5601.

Consider B3, for which the “Log2 (fold change)” value is listed as 3.5154.

As to B4, the “Log2 (fold change)” value stood at 2.8257.

The experiment is the same for the next values; noted with them: repressor domain in dXR, repression of the HBEGF gene; abundance of domain in library after vs before diphtheria toxin selection.
As for B5, the “Log2 (fold change)” value is 2.894.

As for B6, the “Log2 (fold change)” value was 3.5851.

Take B7: the “Log2 (fold change)” value came out at 3.1882.

On to B8, for which the “Log2 (fold change)” value was 2.2811.

As to B9, the “Log2 (fold change)” value is reported as 3.2762.

As to B10, the “Log2 (fold change)” value amounted to 2.7601.

For B11, the “Log2 (fold change)” value is recorded as 2.4034.

Regarding B12, the “Log2 (fold change)” value was found to be 2.9101.

As to B13, the “Log2 (fold change)” value was 2.7072.

On to B14, for which the “Log2 (fold change)” value was found to be 3.5766.

For B15, the “Log2 (fold change)” value was 3.1036.

In the case of B16, the “Log2 (fold change)” value came out at 2.9199.

In the case of B17, the “Log2 (fold change)” value amounted to 3.8532.

Regarding B18, the “Log2 (fold change)” value came to 2.9575.

On to B19, for which the “Log2 (fold change)” value is reported as 3.1268.

Regarding B20, the “Log2 (fold change)” value is recorded as 2.9009.

As to B21, the “Log2 (fold change)” value was found to be 2.5924.

With B22, the “Log2 (fold change)” value amounted to 3.239.

On to B23, for which the “Log2 (fold change)” value worked out at 2.9718.

On to B24, for which the “Log2 (fold change)” value is on record as 2.821.

With B25, the “Log2 (fold change)” value was determined as 3.6383.

Consider B26, for which the “Log2 (fold change)” value came to 2.6444.

As for B27, the “Log2 (fold change)” value was found to be 3.0047.

In the case of B28, the “Log2 (fold change)” value is on record as 3.5916.

Consider B29, for which the “Log2 (fold change)” value came to 2.4997.

With B30, the “Log2 (fold change)” value was 2.2961.

On to B31, for which the “Log2 (fold change)” value stood at 3.327.

With B32, the “Log2 (fold change)” value is reported as 3.3227.

For the molecule B33, the “Log2 (fold change)” value is on record as 2.4077.

Consider B34, for which the “Log2 (fold change)” value came out at 3.5237.

For B35, the “Log2 (fold change)” value is 2.0631.
